Results taken from patent publication US20240115720A1, “ANTIBODY-PYRROLOBENZODIAZEPINE DERIVATIVE CONJUGATE” (MEMORIAL SLOAN KETTERING CANCER CENTER, priority 2021, published 2024).

Columns and labels:
[1] = system: DLL3-positive human small cell lung cancer cell line NCI-H510A; assay: In vivo antitumor effect, NCI-H510A xenograft (Example 17-3); conditions: BALB/c nude mice, 0.2 mg/kg intravenous, single dose on Day 15, FIG. 21
Description: The antitumor effects of the antibody-drug conjugates were evaluated using animal models derived from immunodeficient mice by the inoculation of DLL3-positive human tumor cell line cells. 4- to 5-week-old BALB/c nude mice (CAnN. Cg-Foxn1 [nu]/CrlCrlj [Foxn1nu/Foxn1nu], Charles River Laboratories Japan inc.) were acclimatized for 3 days or longer under SPF conditions before use in the experiment. The mice were fed with a sterilized solid diet (FR-2, Funabashi Farms Co., Ltd) and given sterilized tap water (which had been prepared by adding a 5 to 15 ppm sodium hypochlorite solution to tap water). The long diameter and short diameter of the inoculated tumor were measured twice a week using electronic digital calipers (CD-15CX, Mitutoyo Corp.), and the volume of the tumor was then calculated according to the following expression.
Tumor volume (mm^3=½×Long diameter (mm)×[Short diameter (mm)]^2
Each antibody-drug conjugate was diluted with ABS buffer (10 mM acetate buffer, 5% sorbitol, pH 5.5) (Nacalai Tesque, Inc.), and the dilution was intravenously administered at a dose shown in each study to the tail of each mouse. ABS buffer was administered in the same manner as above to a control group (vehicle group). Six mice per group were used in the experiment. The group with the over 3000 mm^3 estimated tumor volume were euthanized at that time. […]

[2] = system: DLL3-positive human small cell lung cancer cell line NCI-H82; assay: In vivo antitumor effect, NCI-H82 xenograft (Example 22-3); conditions: nude mice, 0.4 mg/kg intravenous, single dose, FIG. 28
Description: (§1) Substantially the same protocol as in Example 17 was used.
(§2) The DLL3-positive human small cell lung cancer cell line NCI-H82 (ATCC) was suspended in Matrigel (Corning Inc.), and the cell suspension was subcutaneously inoculated at a dose of 1×10^6 cells to the right flank region of each female nude mouse. After the tumors were established, the mice were randomly grouped (6 mice per group). On the day of grouping, each of the 2 antibody-drug conjugates (H2-C8-A-3-Conjugate, H10-O18-A-3-Conjugate), the reference anti-DLL3 antibody-Conjugate (SC16LD6.5) or anti-LPS antibody-Conjugate was intravenously administered at a dose of 0.4 mg/kg to the tail of each mouse. The abscissa depicts the days after administration, and the ordinate depicts estimated tumor volume. The error range depicts a SE value.

[3] = system: DLL3-positive human small cell lung cancer cell line NCI-H510A; assay: In vivo antitumor effect, NCI-H510A xenograft (Example 22-1); conditions: nude mice, 0.2 mg/kg intravenous, single dose, FIG. 26
Description: as §1
as §2, with “NCI-H510A” for “NCI-H82”, “2.3×10^6” for “1×10^6”, “(SC16LD6.5),” for “(SC16LD6.5)”, “0.2” for “0.4”

B1: SC16LD6.5: anti-DLL3 ADC: antibody hSC16.56 (SC16) conjugated with drug linker SG3249 by maleimide conjugation (conjugate, chains of the INN, looked up)
VH: QVQLVQSGAEVKKPGASVKVSCKASGYTFTNYGMNWVRQAPGQGLEWMGWINTYTGEPTYADDFKGRVTMTTDTSTSTAYMELRSLRSDDTAVYYCARIGDSSPSDYWGQGTLVTVSS
VL: EIVMTQSPATLSVSPGERATLSCKASQSVSNDVVWYQQKPGQAPRLLIYYASNRYTGIPARFSGSGSGTEFTLTISSLQSEDFAVYYCQQDYTSPWTFGQGTKLEIK
modifications: SG3249 PBD drug-linker (tesirine)
notes: anti-DLL3 ADC: antibody hSC16.56 (SC16) conjugated with drug linker SG3249 by maleimide conjugation
[1]
  antitumor effect (estimated tumor volume): some tumor growth inhibition without tumor regression effect
[2]
  antitumor effect (estimated tumor volume): some tumor growth inhibition without tumor regression effect
[3]
  antitumor effect (estimated tumor volume): some tumor growth inhibition without tumor regression effect
